We go through 14 molecules from patent US20220340678A1 (MURAL ONCOLOGY, published 2022).

To fix the notation:
B1: Mouse uPA-ATF:Mouse cpIL-2:IL-2Ra:His6 (other)
chain: GSVLGAPDESNCGCQNGGVCVSYKYFSRIRRCSCPRKFQGEHCEIDASKTCYHGNGDSYRGKANTDTKGRPCLAWNAPAVLQKPYNAHRPDAISLGLGKHNYCRNPDNQKRPWCYVQIGLRQFVQECMVHDCGGSGGSKSFQLEDAENFISNIRVTVVKLKGSDNTFECQFDDESATVVDFLRRWIAFCQSIISTSPQGGSSSTQQQQQHLEQLLMDLQELLSRMENYRNLKLPRMLTFKFYLPKQATELKDLQCLEDELGPLRHVLDLTQGSGGGSELCLYDPPEVPNATFKALSYKNGTILNCECKRGFRRLKELVYMRCLGNSWSSNCQCTSNSHDKSRKQVTAQLEHQKEQQTTTDMQKPTQSMHQENLTGHCREPPPWKHEDSKRIYHFVEGQSVHYECIPGYKALQRGPAISICKMKCGKTGWTQPQLTCVDHHHHHH
B2: Mouse cpIL-2:IL-2Ra (other)
chain: SSKSFQLEDAENFISNIRVTVVKLKGSDNTFECQFDDESATVVDFLRRWIAFCQSIISTSPQGGSSSTQQQQQHLEQLLMDLQELLSRMENYRNLKLPRMLTFKFYLPKQATELKDLQCLEDELGPLRHVLDLTQGSGGGSELCLYDPPEVPNATFKALSYKNGTILNCECKRGFRRLKELVYMRCLGNSWSSNCQCTSNSHDKSRKQVTAQLEHQKEQQTTTDMQKPTQSMHQENLTGHCREPPPWKHEDSKRIYHFVEGQSVHYECIPGYKALQRGPAISICKMKCGKTGWTQPQLTCVD
B3: IL-12 p35 C74D variant (other)
chain: RNLPVATPDPGMFPCLHHSQNLLRAVSNMLQKARQTLEFYPCTSEEIDHEDITKDKTSTVEACLPLELTKNESDLNSRETSFITNGSCLASRKTSFMMALCLSSIYEDLKMYQVEFKTMNAKLLMDPKRQIFLDQNMLAVIDELMQALNFNSETVPQKSSLEEPDFYKTKIKLCILLHAFRIRAVTIDRVMSYLNAS
B4: M1-H3/L4 (antibody, V domains shown)
VH: EVQLQQSGAEVKKPGATVKLSCTASGFNIKDEYINWVKQRPGQGLEWIGWIDPENGDTEYASKFQGRATITADTSTDTAYLELSSLRSEDTAVYYCTGGNYVGWFPYWGQGTLVTVSS
VL: QIVLTQSPATLSASPGERVTMSCSASSSVSYMHWYQQKPGTSPRRWLYDTSKLASGVPARFSGSGSGTDYTLTISSLEPEDFATYYCQQWSSNPPYTFGQGTKLEIKT
notes: also called humanized M1
B5: M1-H3/L1 (antibody, V domains shown)
VH: EVQLQQSGAEVKKPGATVKLSCTASGFNIKDEYINWVKQRPGQGLEWIGWIDPENGDTEYASKFQGRATITADTSTDTAYLELSSLRSEDTAVYYCTGGNYVGWFPYWGQGTLVTVSS
VL: EIVLTQSPATLSLSPGERATLSCSASSSVSYMHWYQQKPGTSPRRWIYDTSKLASGVPARFSGSGSGTDFTLTISSLEPEDFAVYYCQQWSSNPPYTFGQGTKLEIKT
notes: also called humanized M1
B6: M1-H1/L4 (antibody, V domains shown)
VH: EVQLVQSGAEVKKPGATVKISCTASGFNIKDEYINWVKQRPGKGLEWIGWIDPENGDTEYASKFQGRVTITADTSTDTAYLELSSLRSEDTAVYYCTGGNYVGWFPYWGQGTLVTVSS
VL: QIVLTQSPATLSASPGERVTMSCSASSSVSYMHWYQQKPGTSPRRWLYDTSKLASGVPARFSGSGSGTDYTLTISSLEPEDFATYYCQQWSSNPPYTFGQGTKLEIKT
notes: also called humanized M1
B7: M43-Chimeric (antibody, V domains shown)
VH: QVQLQQSGAELARPGASVNLSCKASGYTFTSYGISWVKQRTGQGLEWIGEIYPRSGNTYYNEKFKGKATLTADKSSRTAYMELRSLTSEDSAVYFCAGKDYGSTYADYWGQGTTLTVSS
VL: QIVLTQSPAIMSASPGEKVTMTCSASSSVSSRYLHWYQQKSGASPKLWIYGTSNLASGVPARFSGSGSGTSYSLTINSVEAEDAATYYCQQYHSDPLTFGAGTKLELK
B8: M43-H1bm5/L4 (antibody, V domains shown)
VH: QVQLVQSGAEVAKPGASVNLNCKASGYTFTSYGISWVRQRTGQGLEWIGEIYPRSGNTYYNEKFKGKVTLTTDKSTRTAYMELRSLTSEDTAVYYCAGKDYGSTYADYWGQGTTLTVSS
VL: QIVLTQSPATLSASPGERVTMTCSASSSVSSRYLHWYQQKSGASPRLWIYGTSNLASGVPARFSGSGPGTSYTLTISSVEPEDAATYYCQQYHSDPLTFGQGTKLELKT
notes: also called humanized M43
B9: M43-H4bm5/L4 (antibody, V domains shown)
VH: QVQLQQSGAEVAKPGASVNLNCKASGYTFTSYGISWVRQRTGQGLEWIGEIYPRSGNTYYNEKFKGKATLTADKSTRTAYMELRSLTSEDTAVYFCAGKDYGSTYADYWGQGTTLTVSS
VL: QIVLTQSPATLSASPGERVTMTCSASSSVSSRYLHWYQQKSGASPRLWIYGTSNLASGVPARFSGSGPGTSYTLTISSVEPEDAATYYCQQYHSDPLTFGQGTKLELKT
notes: also called humanized M43
B10: M8-Chimeric (antibody, V domains shown)
VH: QIQLVQSGPELKKPGETVKISCKASGNTFTDYGMNWVKQSPGKGLKWMGWINTNTGEPTYADDFKGRFAFSLETSASTAYLQINNLKNEDMATYFCAHYSFDYWGQGTTLTVSS
VL: DIQMTQSPASLSVSVGQTVTITCRTSENIYSNLAWYQQKPGKSPQLLVYAATNLADGVPSRFSGSGSGTQYSLKINSLQSEDFGSYYCQHFWGTPWTFGGGTKLEIK
B11: M1-Chimeric (antibody, V domains shown)
VH: EVQLQQSGAELVRPGASVKLSCTASGFNIKDEYINWVKQRPEQGLEWIGWIDPENGDTEYASKFQGKATITADTSSNTAYLQLSSLTSEDTAVYYCTGGNYVGWFPYWGQGTLVTVSA
VL: QIVLTQSPAIMSASPGEKVTMTCSASSSVSYMHWYQQKSGTSPKRWLYDTSKLASGVPARFSGSGSGTSYSLTISSMEAEDAATYYCQQWSSNPPYTFGGGTKLEIK
B12: M8-H3/L2B10 (antibody)
heavy: not shown
light: DIQMTQSPSSLSASVGDTVTITCRTSENIYSNLAWYQQKPGKSPQLLVYAATNLADGVPSRFSGSGSGTDYTLTISSLQPEDFGTYYCQHFWGTPWTFGGGTKVEIKTVAAPSVFIFPPSDEQLKSGTASVVCLLNNFYPREAKVQWKVDNALQSGNSQESVTEQDSKDSTYSLSSTLTLSKADYEKHKVYACEVTHQGLSSPVTKSFNRGEC
notes: also called humanized M8
B13: M8-H3/L2B5 (antibody)
heavy: not shown
light: DIQMTQSPSSLSASVGDRVTITCRTSENIYSNLAWYQQKPGKSPQLLVYAATNLADGVPSRFSGSGSGTDYTLTISSLQPEDFGTYYCQHFWGTPWTFGGGTKVEIKTVAAPSVFIFPPSDEQLKSGTASVVCLLNNFYPREAKVQWKVDNALQSGNSQESVTEQDSKDSTYSLSSTLTLSKADYEKHKVYACEVTHQGLSSPVTKSFNRGEC
notes: also called humanized M8
B14: M8-H3/L2B2 (antibody, V domains shown)
VH: QIQLVQSGSELKKPGASVKISCKASGTTFTDYGMNWVKQSPGKGLKWMGWINTNTGEPTYAEDFKGRFVFSLDTSVSTAYLQISSLKAEDTATYFCAHYSFDYWGQGTLLTVSS
VL: DIQMTQSPSSLSASVGDTVTITCRTSENIYSNLAWYQQKPGKSPQLLVYAATNLADGVPSRFSGSGSGTQYTLKISSLQPEDFATYYCQHFWGTPWTFGGGTKVEIKT
notes: also called humanized M8

The Kd is the concentration at which binding is half-saturated. In general, koff refers to the first-order rate constant of dissociation. The term kon denotes the second-order rate constant of association.

In the first assay the target is IL-2/IL-15 receptor on primary mouse splenocytes (mouse). Description: cell-based or functional assay.
Consider B1, for which the “pSTAT5 EC50, mouse NK cells” value stood at 35 nM; the “pSTAT5 EC50, mouse Tregs” value was determined as 22 nM; the “pSTAT5 EC50, mouse memory CD8 T cells” value came out at 38 nM.

Take B2: the “pSTAT5 EC50, mouse NK cells” value came to 19 nM; the “pSTAT5 EC50, mouse Tregs” value was determined as 22 nM; the “pSTAT5 EC50, mouse memory CD8 T cells” value is 23 nM.

In another assay the target is T1, IL-12 p40 C177S variant (human, UniProt P29460 23-328).
T1 sequence: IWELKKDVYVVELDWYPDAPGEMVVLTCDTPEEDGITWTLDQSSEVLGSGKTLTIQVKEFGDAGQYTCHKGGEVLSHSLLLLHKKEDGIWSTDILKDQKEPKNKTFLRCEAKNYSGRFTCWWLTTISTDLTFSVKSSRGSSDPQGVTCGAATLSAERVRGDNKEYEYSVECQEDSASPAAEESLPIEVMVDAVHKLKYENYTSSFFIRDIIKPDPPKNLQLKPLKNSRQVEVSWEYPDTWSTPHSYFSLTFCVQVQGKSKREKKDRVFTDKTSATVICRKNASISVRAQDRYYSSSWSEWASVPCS
The assay can be described thus: BLI (Octet), p35 C74 variant against p40 C177S. (In BLI a coated tip is dipped into the sample, and binding shifts an interference pattern.)
In turn, B3 had a Kd of 57.1 nM, a koff of 0.001 s⁻¹ and a kon of 17600 M⁻¹ s⁻¹.

A further assay deals with T2, IL-12 p40 C177F variant (human, UniProt P29460 23-328).
T2 sequence: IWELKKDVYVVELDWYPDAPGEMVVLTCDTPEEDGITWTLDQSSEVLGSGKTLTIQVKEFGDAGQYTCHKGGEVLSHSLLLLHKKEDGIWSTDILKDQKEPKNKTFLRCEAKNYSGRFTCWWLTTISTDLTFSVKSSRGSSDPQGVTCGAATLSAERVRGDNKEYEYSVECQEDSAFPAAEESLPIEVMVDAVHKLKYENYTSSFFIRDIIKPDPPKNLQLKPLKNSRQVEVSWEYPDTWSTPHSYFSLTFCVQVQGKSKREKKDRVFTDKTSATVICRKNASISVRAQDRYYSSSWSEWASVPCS
Description: BLI (Octet), p35 C74 variant against p40 C177F.
In turn, B3 had a Kd of 60.2 nM, a koff of 0.000719 s⁻¹ and a kon of 11900 M⁻¹ s⁻¹.

A further assay deals with T3, histidine-tagged human uPAR (Sino#10925-H08H) (human, UniProt Q03405 23-303).
T3 construct: also called uPAR-His
The assay can be described thus: BLI (Octet), antibody on anti-human Fc sensor, uPAR from 50 nM.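 Further: antibodies captured at 10 µg/mL on anti-human Fc biosensors, with uPAR as analyte in a twofold dilution series from 50 nM downward.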
B4 displayed a Kd of 1.3 nM, a koff of 0.000893 s⁻¹ and a kon of 686000 M⁻¹ s⁻¹.

In turn, B5 came in with a Kd of 1.64 nM, a koff of 0.00111 s⁻¹ and a kon of 677000 M⁻¹ s⁻¹.

With B6, the Kd was 1.48 nM, the koff stood at 0.000986 s⁻¹ and the kon amounted to 665000 M⁻¹ s⁻¹.

B7: the Kd is 15.1 nM, the koff was 0.00606 s⁻¹ and the kon came out at 402000 M⁻¹ s⁻¹.

As to B8, the Kd was 15.9 nM, the koff was 0.00658 s⁻¹ and the kon came to 415000 M⁻¹ s⁻¹.

On to B9, for which the Kd stood at 14.7 nM, the koff was determined as 0.00666 s⁻¹ and the kon is 454000 M⁻¹ s⁻¹.

Molecule B10 gave a Kd of 1.79 nM, a koff of 0.00049 s⁻¹ and a kon of 273000 M⁻¹ s⁻¹.

As for B11, the Kd was found to be 1.11 nM, the koff is 0.000701 s⁻¹ and the kon was 629000 M⁻¹ s⁻¹.

The molecule B12 registered a Kd of 2.35 nM, a koff of 0.000477 s⁻¹ and a kon of 203000 M⁻¹ s⁻¹.

In turn, B13 registered a Kd of 1.65 nM, a koff of 0.000351 s⁻¹ and a kon of 213000 M⁻¹ s⁻¹.

B14: the Kd turned out to be 1.74 nM, the koff was determined as 0.000427 s⁻¹ and the kon was determined as 246000 M⁻¹ s⁻¹.

In a further assay the target is T4, Recombinant mouse uPAR-Fc (R&D Systems, Cat. No. 531-PA-100) (mouse, UniProt P35456 24-297, limits assumed).
T4 construct: not shown: Fc of the bought fusion (captured with the human antibody capture kit); not described
T4 sequence (looked up): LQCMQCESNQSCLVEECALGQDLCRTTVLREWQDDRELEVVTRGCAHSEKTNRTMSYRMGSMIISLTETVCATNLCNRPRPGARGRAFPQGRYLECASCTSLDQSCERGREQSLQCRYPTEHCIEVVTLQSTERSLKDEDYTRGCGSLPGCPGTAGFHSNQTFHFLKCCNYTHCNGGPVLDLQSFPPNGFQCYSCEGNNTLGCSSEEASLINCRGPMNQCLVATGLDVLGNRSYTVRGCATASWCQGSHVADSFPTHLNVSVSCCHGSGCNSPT
Description: SPR (Biacore), mouse uPAR-Fc captured on anti-human antibody chip. (In general: Surface plasmon resonance follows binding to a sensor surface in real time, without labels.)
As to B1, the Kd came to 0.14 nM, the koff came to 0.0002 s⁻¹ and the kon worked out at 1.4e+06 M⁻¹ s⁻¹.
